{
  "source": "paper PMC3978877",
  "biological_target": "TNFα (UniProt P06804)",
  "sequence (P06804 80-235)": "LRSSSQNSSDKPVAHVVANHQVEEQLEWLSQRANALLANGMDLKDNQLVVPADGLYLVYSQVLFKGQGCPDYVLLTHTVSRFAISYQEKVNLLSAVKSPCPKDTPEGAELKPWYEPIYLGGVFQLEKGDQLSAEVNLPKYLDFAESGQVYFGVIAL",
  "data": [
    {"binder": "muTNFR-Fc (Fc fusion) VPAQVVLTPYKPEPGYECQISQEYYDRKAQMCCAKCPPGQYVKHFCNKTSDTVCADCEASMYTQVWNQFRTCLSCSSSCTTDQVEIRACTKQQNRVCACEAGRYCALKTHSGSCRQCMRLSKCGPGFGVASSRAPNGNVLCKACAPGTFSDTTSSTDVCRPHRICSILAIPGNASTDAVCAPESPTLSAIPRTLYVSQPEPTRSQPLDQEPGPSQTPSILTSLGSTPIIEQSTKGG", "values": [
      {"measurement": "inhibition of TNF-mediated killing of lung murine fibroblasts (TNFα trimer 5 pM, actinomycin D 2 μg/ml, muTNFR-Fc 50 nM to 0.1 pM, 24 h); half-maximal inhibitory concentration", "result": 0.1, "unit": "nM"}
    ]}
  ]
}
